What is called Km is the substrate concentration at which the rate is half of its maximum. The term kcat denotes the maximal rate divided by the concentration of active sites. In general, stoichiometry N refers to the number of molecules, sites or subunits per partner or assembly.

For series [1], the system named is CC(C)C[C@H](N)C(=O)Nc1ccc([N+](=O)[O-])cc1. The series is described as follows: purified protein. Conditions: 3 mM Co2+, pH 8.5, 40 °C (abstract: 45 °C optimum).
Series [2] concerns the target MesoAmp, aminopeptidase M29 (Aminopeptidase T) from Mesorhizobium SEMIA 3007 (Mesorhizobium SEMIA 3007). The series is described as follows: SEC; Hiload16/600 Superdex 200, 100 mM Tris-HCl pH 8.0, 200 mM NaCl, 5% (w/v) glycerol, 0.5 mL/min; native mass estimated from a calibration curve of standard proteins and compared with the mass on SDS-PAGE.

As for MesoAmp (Mesorhizobium sp. SEMIA 3007), in series [1], the Km was 236.4 ± 18.2 µM and the kcat worked out at 712.1 ± 88.12 s⁻¹.
Take “MesoAmp, aminopeptidase M29 (Aminopeptidase T) from Mesorhizobium SEMIA 3007 (enzyme)”: the stoichiometry N in series [2] was 2.

Source of the values: publication PMC5587760, “Halotolerant aminopeptidase M29 from Mesorhizobium SEMIA 3007 with biotechnological potential and its impact on biofilm synthesis” (Scientific Reports, 2017).
